The labels stand for the following.
B1: dBr_Jan07_01937 (dsDNA)
DNA 1: AGCTTTTTATCTCTGTGGGCGGGTAACAACCATGTGGTCTGTGTTCCGTTGTCCGTGCTG
DNA 2: CAGCACGGACAACGGAACACAGACCACATGGTTGTTACCCGCCCACAGAGATAAAAAGCT
B2: dBr_Jan07_01836 (dsDNA)
DNA 1: GTCGAGAATCCAATACGCCACGTGCATACGTACGTCGTCTGTGTTCCGTTGTCCGTGCTG
DNA 2: CAGCACGGACAACGGAACACAGACGACGTACGTATGCACGTGGCGTATTGGATTCTCGAC
B3: dBr_Jan07_35732 (dsDNA)
DNA 1: TAGTTGTATCTTGATCGCCGATTCCCCATGCCACGTGTCTGTGTTCCGTTGTCCGTGCTG
DNA 2: CAGCACGGACAACGGAACACAGACACGTGGCATGGGGAATCGGCGATCAAGATACAACTA
B4: dBr_Jan07_36232 (dsDNA)
DNA 1: CCATGCCAACTAGGCGCACGTGATTGTTCGAGAACTGTCTGTGTTCCGTTGTCCGTGCTG
DNA 2: CAGCACGGACAACGGAACACAGACAGTTCTCGAACAATCACGTGCGCCTAGTTGGCATGG
B5: dBr_Jan07_32059 (dsDNA)
DNA 1: CCGGTCACTGCCGGTGATGCCCTGCTTTATCACGTGGTCTGTGTTCCGTTGTCCGTGCTG
DNA 2: CAGCACGGACAACGGAACACAGACCACGTGATAAAGCAGGGCATCACCGGCAGTGACCGG
B6: dBr_Jan07_01481 (dsDNA)
DNA 1: CCGCCAGCATTTCCTGCTTTGCACGTGTAAGATACCGTCTGTGTTCCGTTGTCCGTGCTG
DNA 2: CAGCACGGACAACGGAACACAGACGGTATCTTACACGTGCAAAGCAGGAAATGCTGGCGG
B7: dBr_Jan07_16225 (dsDNA)
DNA 1: ACATTCCTAGCTATTACTTGGTAGCTCTCAGCACGTGTCTGTGTTCCGTTGTCCGTGCTG
DNA 2: CAGCACGGACAACGGAACACAGACACGTGCTGAGAGCTACCAAGTAATAGCTAGGAATGT
B8: dBr_Jan07_07176 (dsDNA)
DNA 1: TATGCGTTGGCCATCTTAATTCCACGTGGTGTCCTCGTCTGTGTTCCGTTGTCCGTGCTG
DNA 2: CAGCACGGACAACGGAACACAGACGAGGACACCACGTGGAATTAAGATGGCCAACGCATA
B9: dBr_Jan07_00940 (dsDNA)
DNA 1: GGATATGGCCCTCCCTACGAACACGTGGAGTTAGGCGTCTGTGTTCCGTTGTCCGTGCTG
DNA 2: CAGCACGGACAACGGAACACAGACGCCTAACTCCACGTGTTCGTAGGGAGGGCCATATCC
B10: dBr_Jan07_17567 (dsDNA)
DNA 1: CCAAGAGGACCACGTGCTTTGGTCTCTAACTCGTATGTCTGTGTTCCGTTGTCCGTGCTG
DNA 2: CAGCACGGACAACGGAACACAGACATACGAGTTAGAGACCAAAGCACGTGGTCCTCTTGG
B11: dBr_Jan07_19752 (dsDNA)
DNA 1: TAAGCTTCGGTTCTCGTTCGGTACAACACGTGTATGGTCTGTGTTCCGTTGTCCGTGCTG
DNA 2: CAGCACGGACAACGGAACACAGACCATACACGTGTTGTACCGAACGAGAACCGAAGCTTA
B12: dBr_Jan07_32554 (dsDNA)
DNA 1: CGACGTTGTCTGACGAATAATGCCGAGCGGACACGTGTCTGTGTTCCGTTGTCCGTGCTG
DNA 2: CAGCACGGACAACGGAACACAGACACGTGTCCGCTCGGCATTATTCGTCAGACAACGTCG
B13: dBr_Jan07_03400 (dsDNA)
DNA 1: ACGTCGGCTATGATTTCACGCTATTCTAAGACACGTGTCTGTGTTCCGTTGTCCGTGCTG
DNA 2: CAGCACGGACAACGGAACACAGACACGTGTCTTAGAATAGCGTGAAATCATAGCCGACGT
B14: dBr_Jan07_08390 (dsDNA)
DNA 1: GTATTGTTGCGTATGTCACGTGGTACAAAACCCAGGGTCTGTGTTCCGTTGTCCGTGCTG
DNA 2: CAGCACGGACAACGGAACACAGACCCTGGGTTTTGTACCACGTGACATACGCAACAATAC
B15: dBr_Jan07_07207 (dsDNA)
DNA 1: TCAGCCGCGTGGCACAATGTCCACAGGTAGGGTACAGTCTGTGTTCCGTTGTCCGTGCTG
DNA 2: CAGCACGGACAACGGAACACAGACTGTACCCTACCTGTGGACATTGTGCCACGCGGCTGA
B16: dBr_Jan07_28790 (dsDNA)
DNA 1: CTATTCCGATGCCATAAAACTTTCCACTCCACGTGTGTCTGTGTTCCGTTGTCCGTGCTG
DNA 2: CAGCACGGACAACGGAACACAGACACACGTGGAGTGGAAAGTTTTATGGCATCGGAATAG
B17: dBr_Jan07_39019 (dsDNA)
DNA 1: TCCTTCCCGACGGACAGTGCAATCTGATTATCACGTGTCTGTGTTCCGTTGTCCGTGCTG
DNA 2: CAGCACGGACAACGGAACACAGACACGTGATAATCAGATTGCACTGTCCGTCGGGAAGGA
B18: dBr_Jan07_31948 (dsDNA)
DNA 1: TGTCATTACCTGTCCGAGCAGGACAAAAAACCACGTGTCTGTGTTCCGTTGTCCGTGCTG
DNA 2: CAGCACGGACAACGGAACACAGACACGTGGTTTTTTGTCCTGCTCGGACAGGTAATGACA
B19: dBr_Jan07_20372 (dsDNA)
DNA 1: TCGTTTGTACACGTGGGTTTGCAAGAGTAAGTGTCCGTCTGTGTTCCGTTGTCCGTGCTG
DNA 2: CAGCACGGACAACGGAACACAGACGGACACTTACTCTTGCAAACCCACGTGTACAAACGA
B20: dBr_Jan07_27092 (dsDNA)
DNA 1: GTTTAGAGGCTGTTTGCTGTCGCCCTACAACCACGTGTCTGTGTTCCGTTGTCCGTGCTG
DNA 2: CAGCACGGACAACGGAACACAGACACGTGGTTGTAGGGCGACAGCAAACAGCCTCTAAAC
B21: dBr_Jan07_23881 (dsDNA)
DNA 1: CATATTAGACCGGCGTATACGCACGTGGCGTAGATTGTCTGTGTTCCGTTGTCCGTGCTG
DNA 2: CAGCACGGACAACGGAACACAGACAATCTACGCCACGTGCGTATACGCCGGTCTAATATG
B22: dBr_Jan07_13408 (dsDNA)
DNA 1: CCGCGCGCAGGCACTTAGGGTACCTGCTGTCCACGTGTCTGTGTTCCGTTGTCCGTGCTG
DNA 2: CAGCACGGACAACGGAACACAGACACGTGGACAGCAGGTACCCTAAGTGCCTGCGCGCGG
B23: dBr_Jan07_16170 (dsDNA)
DNA 1: TACTAGATTACTACAGACGTTTGCGATCACGTGCATGTCTGTGTTCCGTTGTCCGTGCTG
DNA 2: CAGCACGGACAACGGAACACAGACATGCACGTGATCGCAAACGTCTGTAGTAATCTAGTA
B24: dBr_Jan07_11943 (dsDNA)
DNA 1: GGGCCGGTAAACGGACTGGTACGATGAAGCGCACGTGTCTGTGTTCCGTTGTCCGTGCTG
DNA 2: CAGCACGGACAACGGAACACAGACACGTGCGCTTCATCGTACCAGTCCGTTTACCGGCCC
B25: dBr_Jan07_09790 (dsDNA)
DNA 1: ATTCTAATGATTGCGTATACACGTGTCTTGAATTGGGTCTGTGTTCCGTTGTCCGTGCTG
DNA 2: CAGCACGGACAACGGAACACAGACCCAATTCAAGACACGTGTATACGCAATCATTAGAAT
B26: dBr_Jan07_18904 (dsDNA)
DNA 1: CCCGGATAATATTTCGGCTTCAAGAATCACGTGGAAGTCTGTGTTCCGTTGTCCGTGCTG
DNA 2: CAGCACGGACAACGGAACACAGACTTCCACGTGATTCTTGAAGCCGAAATATTATCCGGG
B27: dBr_Jan07_25672 (dsDNA)
DNA 1: TCACGCACCCCGCAAGCGCAACCACGTGGTAAGGGTGTCTGTGTTCCGTTGTCCGTGCTG
DNA 2: CAGCACGGACAACGGAACACAGACACCCTTACCACGTGGTTGCGCTTGCGGGGTGCGTGA
B28: dBr_Jan07_25426 (dsDNA)
DNA 1: TCTCTGTGCGGCGGGGTCCATAGCACGCACGTGTTAGTCTGTGTTCCGTTGTCCGTGCTG
DNA 2: CAGCACGGACAACGGAACACAGACTAACACGTGCGTGCTATGGACCCCGCCGCACAGAGA
B29: dBr_Jan07_39189 (dsDNA)
DNA 1: GGCTTGCATTGTTGGGCCCACGTGTTGATTGTCTAAGTCTGTGTTCCGTTGTCCGTGCTG
DNA 2: CAGCACGGACAACGGAACACAGACTTAGACAATCAACACGTGGGCCCAACAATGCAAGCC
B30: dBr_Jan07_03225 (dsDNA)
DNA 1: TTCTATCCCTAATCTCCGCGTGGCTACCCCTTCAAGGTCTGTGTTCCGTTGTCCGTGCTG
DNA 2: CAGCACGGACAACGGAACACAGACCTTGAAGGGGTAGCCACGCGGAGATTAGGGATAGAA
B31: dBr_Jan07_34584 (dsDNA)
DNA 1: ATTGCCGCACCTGATGCATCGCCACGTGTTATAATCGTCTGTGTTCCGTTGTCCGTGCTG
DNA 2: CAGCACGGACAACGGAACACAGACGATTATAACACGTGGCGATGCATCAGGTGCGGCAAT
B32: dBr_Jan07_12609 (dsDNA)
DNA 1: TGATAAGGATCTACTTCAAGAGCACGTGTCATCTATGTCTGTGTTCCGTTGTCCGTGCTG
DNA 2: CAGCACGGACAACGGAACACAGACATAGATGACACGTGCTCTTGAAGTAGATCCTTATCA

For the series, the target named is WT Max (Homo sapiens, UniProt P61244-2 13-93, M65Nle, norleucine written as M; other non-natural residues written as X). As to the kind of experiment: PBM; 50-200 nM protein; PBS, 2% milk, BSA, salmon testes DNA, 0.02% Triton X-100. As to conditions: chain copies: 2; label: surface-attached array probe.
Sequence of WT Max (P61244 other isoform, or with tags, fused parts or gaps M65Nle): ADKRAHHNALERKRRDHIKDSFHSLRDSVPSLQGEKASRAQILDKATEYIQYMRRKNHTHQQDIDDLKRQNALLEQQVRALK
Consider B1, for which the binding signal was 4.33 robust z of log adjusted intensity (ours), mean of two arrays.

Consider B2, for which the binding signal is 3.94 robust z of log adjusted intensity (ours), mean of two arrays.

For the molecule B3, the binding signal was 4.37 robust z of log adjusted intensity (ours), mean of two arrays.

Consider B4, for which the binding signal is 4.03 robust z of log adjusted intensity (ours), mean of two arrays.

For the molecule B5, the binding signal was 4.08 robust z of log adjusted intensity (ours), mean of two arrays.

On to B6, for which the binding signal is 4.74 robust z of log adjusted intensity (ours), mean of two arrays.

Regarding B7, the binding signal is 4.26 robust z of log adjusted intensity (ours), mean of two arrays.

With B8, the binding signal was 4.6 robust z of log adjusted intensity (ours), mean of two arrays.

B9: the binding signal is 4.33 robust z of log adjusted intensity (ours), mean of two arrays.

As for B10, the binding signal was 3.82 robust z of log adjusted intensity (ours), mean of two arrays.

Take B11: the binding signal is 4.26 robust z of log adjusted intensity (ours), mean of two arrays.

On to B12, for which the binding signal was 4.1 robust z of log adjusted intensity (ours), mean of two arrays.

For B13, the binding signal was 4.73 robust z of log adjusted intensity (ours), mean of two arrays.

For B14, the binding signal was 4.12 robust z of log adjusted intensity (ours), mean of two arrays.

For the molecule B15, the binding signal is 5.41 robust z of log adjusted intensity (ours), mean of two arrays.

For the molecule B16, the binding signal is 4.91 robust z of log adjusted intensity (ours), mean of two arrays.

As for B17, the binding signal is 4.91 robust z of log adjusted intensity (ours), mean of two arrays.

In the case of B18, the binding signal is 4.44 robust z of log adjusted intensity (ours), mean of two arrays.

For B19, the binding signal is 4.3 robust z of log adjusted intensity (ours), mean of two arrays.

In the case of B20, the binding signal was 4.94 robust z of log adjusted intensity (ours), mean of two arrays.

In the case of B21, the binding signal is 4.35 robust z of log adjusted intensity (ours), mean of two arrays.

On to B22, for which the binding signal is 4.13 robust z of log adjusted intensity (ours), mean of two arrays.

Turning to B23, the binding signal was 5.85 robust z of log adjusted intensity (ours), mean of two arrays.

Take B24: the binding signal is 4.72 robust z of log adjusted intensity (ours), mean of two arrays.

With B25, the binding signal was 4.37 robust z of log adjusted intensity (ours), mean of two arrays.

Turning to B26, the binding signal is 4.33 robust z of log adjusted intensity (ours), mean of two arrays.

Consider B27, for which the binding signal was 6.01 robust z of log adjusted intensity (ours), mean of two arrays.

B28: the binding signal is 4.48 robust z of log adjusted intensity (ours), mean of two arrays.

Turning to B29, the binding signal was 4.2 robust z of log adjusted intensity (ours), mean of two arrays.

Consider B30, for which the binding signal is 4.25 robust z of log adjusted intensity (ours), mean of two arrays.

For the molecule B31, the binding signal was 6.19 robust z of log adjusted intensity (ours), mean of two arrays.

B32: the binding signal was 4.35 robust z of log adjusted intensity (ours), mean of two arrays.
